These are literature values, as cited in article PMC7277390.

As a reminder, the Kd is the free concentration of one partner at which half of the binding sites on the other are occupied at equilibrium, for simple one-to-one binding.

In this series the target is serum albumin (MSA) (Mus musculus) (UniProt P07724).
Chain of UniProt P07724 (P07724 25-608): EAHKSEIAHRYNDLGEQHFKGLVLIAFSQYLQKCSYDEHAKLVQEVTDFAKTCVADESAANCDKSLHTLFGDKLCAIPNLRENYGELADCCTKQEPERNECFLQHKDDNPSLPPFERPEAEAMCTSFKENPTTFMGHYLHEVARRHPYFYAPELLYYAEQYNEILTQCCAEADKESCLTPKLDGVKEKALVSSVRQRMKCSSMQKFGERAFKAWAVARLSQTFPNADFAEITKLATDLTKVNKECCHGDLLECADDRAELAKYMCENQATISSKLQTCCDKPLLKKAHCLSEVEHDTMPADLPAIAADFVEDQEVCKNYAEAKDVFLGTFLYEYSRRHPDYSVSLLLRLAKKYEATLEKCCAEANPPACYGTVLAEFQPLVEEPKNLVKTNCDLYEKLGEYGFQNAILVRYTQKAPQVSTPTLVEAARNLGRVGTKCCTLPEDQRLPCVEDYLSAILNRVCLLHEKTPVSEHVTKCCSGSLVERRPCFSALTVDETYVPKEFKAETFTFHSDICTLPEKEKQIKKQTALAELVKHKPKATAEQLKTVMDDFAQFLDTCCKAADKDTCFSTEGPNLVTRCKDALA

As for FcRn (from UniProt Q61559), the Kd is 546 nM.
